The values below come from patent US10800813 (Bicycle, dated 2020).

Read-outs that look alike come from different tables or passages of the source. Numbered stars: 1 amine (or outer) side, 2 acyl side, 3 side chain; on linkers, the order of the positions; unused ones are H or OH. Bridge positions count the residues as written; N and C are the ends. Square brackets hold non-standard residues; d marks the D form. Ends that are not written are not given here. Phe(4-guanidino) = N=C(N)Nc1ccc(C[C@H](N)C(=O)O)cc1; TBMB = c1c(C[*:1])cc(C[*:3])cc1C[*:2]; NMeR = CN[C@@H](CCCNC(=N)N)C(=O)O; hArg = N=C(N)NCCCC[C@H](N)C(=O)O; NMeS = CN[C@@H](CO)C(=O)O; Aze = O=C(O)[C@@H]1CCN1; Abu = CC[C@H](N)C(=O)O; Sar = CNCC(=O)O

The target in experiment [1] is T1, human plasma Kallikrein (human, UniProt P03952 20-638, limits assumed).
T1 construct: also called hPK; human PK
Nature of the experiment: enzyme inhibition assay.

Experiment [2] concerns the target T2, Monkey plasma Kallikrein (monkey (Macaca mulatta), UniProt A0A1D5Q7U7 391-638).
T2 construct: domain: catalytic domain; also called mPK
Nature of the experiment: enzyme inhibition assay.

For experiment [3], the target named is T3, Rat plasma Kallikrein (rat, UniProt P14272 391-638, limits assumed).
T3 construct: domain: catalytic domain; also called rPK; rat PK
Nature of the experiment: enzyme inhibition assay.

For experiment [4], the target named is T1, human plasma Kallikrein. Put plainly: enzyme inhibition assay. The source holds these as a separate data set.
Experiment [5] concerns the target T1, human plasma Kallikrein. Put plainly: enzyme inhibition assay. This is another data set of the same source.
Experiment [6] deals with T1, human plasma Kallikrein. Put plainly: enzyme inhibition assay. The source holds these as a separate data set.
For experiment [7], the target named is T1, human plasma Kallikrein. Nature of the experiment: enzyme inhibition assay. This is another data set of the same source.
Experiment [8] addresses T3, Rat plasma Kallikrein. Nature of the experiment: enzyme inhibition assay; values relative, not absolute.
The target of experiment [9] is T1, human plasma Kallikrein. Nature of the experiment: enzyme inhibition assay. This is another data set of the same source.
Experiment [10] concerns the target T1, human plasma Kallikrein. Put plainly: enzyme inhibition assay. This is another data set of the same source.
In experiment [11] the target is T4, Human factor XIa (human, UniProt P03951 19-625).
T4 construct: also called hfXIa
Put plainly: enzyme inhibition assay.

Experiment [12] concerns the target T1, human plasma Kallikrein. Nature of the experiment: enzyme inhibition assay. This is another data set of the same source.
The target in experiment [13] is T1, human plasma Kallikrein. Put plainly: enzyme inhibition assay. The source holds these as a separate data set.
The target of experiment [14] is T3, Rat plasma Kallikrein. Nature of the experiment: enzyme inhibition assay. The source holds these as a separate data set.
For experiment [15], the target named is T1, human plasma Kallikrein. Put plainly: enzyme inhibition assay. The source holds these as a separate data set.
Experiment [16] concerns the target T1, human plasma Kallikrein. Nature of the experiment: enzyme inhibition assay. This is another data set of the same source.
Experiment [17] deals with T1, human plasma Kallikrein. Put plainly: enzyme inhibition assay. The source holds these as a separate data set.
Experiment [18] deals with T1, human plasma Kallikrein. Put plainly: enzyme inhibition assay. The source holds these as a separate data set.
Experiment [19] deals with T1, human plasma Kallikrein. Nature of the experiment: enzyme inhibition assay. The source holds these as a separate data set.
The target in experiment [20] is T1, human plasma Kallikrein. Nature of the experiment: enzyme inhibition assay. This is another data set of the same source.
In experiment [21] the target is T1, human plasma Kallikrein. Nature of the experiment: enzyme inhibition assay. The source holds these as a separate data set.
For experiment [22], the target named is T3, Rat plasma Kallikrein. Nature of the experiment: enzyme inhibition assay; values relative, not absolute. This is another data set of the same source.
Experiment [23] has as its target T1, human plasma Kallikrein. Nature of the experiment: enzyme inhibition assay. The source holds these as a separate data set.

T1 sequence (P03952 20-638 limits assumed): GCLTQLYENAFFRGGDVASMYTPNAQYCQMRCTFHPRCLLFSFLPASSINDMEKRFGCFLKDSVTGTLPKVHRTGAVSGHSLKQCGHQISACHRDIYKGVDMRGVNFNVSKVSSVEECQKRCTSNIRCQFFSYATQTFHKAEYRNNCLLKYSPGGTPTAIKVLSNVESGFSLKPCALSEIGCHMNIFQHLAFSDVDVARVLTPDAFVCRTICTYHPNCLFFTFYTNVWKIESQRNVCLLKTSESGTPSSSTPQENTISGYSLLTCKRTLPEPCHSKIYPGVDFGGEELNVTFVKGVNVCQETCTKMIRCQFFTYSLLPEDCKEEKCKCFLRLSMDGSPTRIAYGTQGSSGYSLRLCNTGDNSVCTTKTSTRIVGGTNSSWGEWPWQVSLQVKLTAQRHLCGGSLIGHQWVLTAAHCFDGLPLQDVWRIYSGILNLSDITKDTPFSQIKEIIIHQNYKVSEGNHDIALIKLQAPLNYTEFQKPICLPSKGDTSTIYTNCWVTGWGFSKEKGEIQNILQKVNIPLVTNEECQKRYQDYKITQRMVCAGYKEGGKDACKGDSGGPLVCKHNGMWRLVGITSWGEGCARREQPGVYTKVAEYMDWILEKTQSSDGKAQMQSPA
T3 sequence (P14272 391-638 limits assumed): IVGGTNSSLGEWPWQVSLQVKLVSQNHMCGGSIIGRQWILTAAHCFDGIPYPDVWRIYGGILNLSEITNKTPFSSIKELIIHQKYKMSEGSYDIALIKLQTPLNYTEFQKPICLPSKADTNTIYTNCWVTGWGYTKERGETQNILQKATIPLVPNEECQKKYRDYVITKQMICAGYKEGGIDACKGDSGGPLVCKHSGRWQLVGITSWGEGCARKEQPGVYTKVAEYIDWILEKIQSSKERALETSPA
T2 sequence (A0A1D5Q7U7 entry or part of it): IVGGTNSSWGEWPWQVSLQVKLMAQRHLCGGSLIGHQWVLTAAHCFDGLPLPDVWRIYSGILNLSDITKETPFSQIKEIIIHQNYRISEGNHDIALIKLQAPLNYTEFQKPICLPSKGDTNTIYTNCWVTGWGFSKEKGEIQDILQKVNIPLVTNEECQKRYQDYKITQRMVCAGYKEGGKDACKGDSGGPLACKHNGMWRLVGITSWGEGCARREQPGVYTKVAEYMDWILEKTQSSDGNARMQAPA

A word on the Ki: it is a measure of affinity in units of concentration, obtained from inhibition or displacement. Take ACRWPARCTHQNYCA (linker 2-8-14 via TBMB; not fully specified (N-terminus, C-terminus), also called PK106) [06-54 (2A2)]: the inhibitory constant (Ki) in experiment [1] amounted to 5 nM; in experiment [2], 6 nM; in experiment [3], 7 nM; in experiment [4], 0.49 nM.
Ac-CSW[Aze][Abu][Phe(4-guanidino)]CLHQDLC-NH2 (linker 1-7-13 via TBMB) [Ac-(06-34-18) Aze3 Aba4 4GuanPhe5]: the Ki in experiment [5] worked out at 0.2 nM.

B1: Ac-(06-34-18) 4GuanPhe5 (peptide)
peptide: Ac-CSWPA[Phe(4-guanidino)]CLHQDLC-NH2
modifications: linker 1-7-13 via TBMB
SMILES: CC(=O)N[C@H]1CSCc2cc3cc(c2)CSC[C@H](NC(=O)[C@H](Cc2ccc(NC(=N)N)cc2)NC(=O)[C@H](C)NC(=O)[C@@H]2CCCN2C(=O)[C@H](Cc2c[nH]c4ccccc24)NC(=O)[C@H](CO)NC1=O)C(=O)N[C@@H](CC(C)C)C(=O)N[C@@H](Cc1c[nH]cn1)C(=O)N[C@@H](CCC(N)=O)C(=O)N[C@@H](CC(=O)O)C(=O)N[C@@H](CC(C)C)C(=O)N[C@H](C(N)=O)CSC3
By IC50 is commonly meant the concentration that gives 50% inhibition. With B1, the Ki amounted to 0.3 nM in [6] and 0.34 nM in [7]. In experiment [8], the IC50 was determined as 21 nM.

B2: Ac-(06-34-18) NMeArg5 (peptide)
peptide: Ac-CSWPA[NMeR]CLHQDLC-NH2
modifications: linker 1-7-13 via TBMB
SMILES: CC(=O)N[C@H]1CSCc2cc3cc(c2)CSC[C@H](NC(=O)[C@H](CCCNC(=N)N)N(C)C(=O)[C@H](C)NC(=O)[C@@H]2CCCN2C(=O)[C@H](Cc2c[nH]c4ccccc24)NC(=O)[C@H](CO)NC1=O)C(=O)N[C@@H](CC(C)C)C(=O)N[C@@H](Cc1c[nH]cn1)C(=O)N[C@@H](CCC(N)=O)C(=O)N[C@@H](CC(=O)O)C(=O)N[C@@H](CC(C)C)C(=O)N[C@H](C(N)=O)CSC3
As to B2, the “fold reduction in affinity against wildtype peptide” value in [9] came to 20 fold. The inhibition constant (Ki) in experiment [10] and in experiment [7] was 3.5 nM in each case. Also, the IC50 in experiment [8] stood at 98 nM.
Turning to ACFKACRVNCA (linker 2-6-10 via TBMB, also called PK117) [3B3], the inhibitory constant (Ki) was determined as 11 nM in experiment [2], 24 nM in experiment [3] and 57 nM in [11].
On to H-ACSDRFRNCPADEALCG-NH2 (linker 2-9-16 via TBMB, 6x6 bicyclic peptide) [PK15], for which the inhibition constant (Ki) in experiment [1] is 3 nM; in [2], 4 nM; in [3], 941 nM; in [11] it was 75000 nM.
Molecule Ac-CSW[Aze][Abu][NMeR]CLHQDLC-NH2 (linker 1-7-13 via TBMB) [Ac-(06-34-18) Aze3 Aba4 NMeArg5] registered a Ki in [5] of 2.8 nM.
As to AC[Sar]WPARC[Sar]HQDLCA (linker 2-8-14 via TBMB; not fully specified (N-terminus, C-terminus), also called AC N-MeGWPARCN-MeGHQDLCA) [06-34-03 - N-MeGly1,6], in experiment [12], the affinity corresponds to a Ki of 24.8 nM.
Ac-CSWPA[hArg]CLHQDLC-NH2 (linker 1-7-13 via TBMB) [Ac-(06-34-18) HomoArg5] had an IC50 in experiment [8] of 64 nM.
Ac-CSW[Aze][Abu][hArg]CLHQDLC-NH2 (linker 1-7-13 via TBMB) [Ac-(06-34-18) Aze3 Aba4 HomoArg5] displayed a Ki in experiment [5] of 0.9 nM.
Take ACSWPARCLHQDLCA (linker 2-8-14 via TBMB; not fully specified (N-terminus, C-terminus)) [06-34-18 (01 + 05)]: the concentration for half-maximal inhibition (IC50) in [13] came to 0.07 nM; in experiment [14] it was 0.56 nM. Moreover, the inhibitory constant (Ki) in [12] stood at 0.04 nM.

B3: Ac-06-34-18(TMB)-NH2 (peptide)
peptide: Ac-CSWPARCLHQDLC-NH2
modifications: linker 1-7-13 via TBMB
SMILES: CC(=O)N[C@H]1CSCc2cc3cc(c2)CSC[C@H](NC(=O)[C@H](CCCNC(=N)N)NC(=O)[C@H](C)NC(=O)[C@@H]2CCCN2C(=O)[C@H](Cc2c[nH]c4ccccc24)NC(=O)[C@H](CO)NC1=O)C(=O)N[C@@H](CC(C)C)C(=O)N[C@@H](Cc1c[nH]cn1)C(=O)N[C@@H](CCC(N)=O)C(=O)N[C@@H](CC(=O)O)C(=O)N[C@@H](CC(C)C)C(=O)N[C@H](C(N)=O)CSC3
notes: also called Ac-(06-34-18) wildtype; Ac-(06-34-18) WPAR
For the molecule B3, the Ki in experiment [15], in experiment [16], in experiment [10], in experiment [6], in [17] and in experiment [18] was 0.17 nM throughout. Moreover, the Ki in experiment [19], in experiment [7], in experiment [5] and in experiment [20] was 0.17 nM each time. This molecule displayed an IC50 in [8] of 1.7 nM.

B4: Ac-(06-34-18) Phe2 Tyr4 HomoArg5 (peptide)
peptide: Ac-CSFPY[hArg]CLHQDLC-NH2
modifications: linker 1-7-13 via TBMB
SMILES: CC(=O)N[C@H]1CSCc2cc3cc(c2)CSC[C@H](NC(=O)[C@H](CCCCNC(=N)N)NC(=O)[C@H](Cc2ccc(O)cc2)NC(=O)[C@@H]2CCCN2C(=O)[C@H](Cc2ccccc2)NC(=O)[C@H](CO)NC1=O)C(=O)N[C@@H](CC(C)C)C(=O)N[C@@H](Cc1c[nH]cn1)C(=O)N[C@@H](CCC(N)=O)C(=O)N[C@@H](CC(=O)O)C(=O)N[C@@H](CC(C)C)C(=O)N[C@H](C(N)=O)CSC3
Regarding B4, the inhibitory constant (Ki) in experiment [21] is 0.77 nM. The half-maximal inhibitory concentration (IC50) in [22] came to 19.7 nM.

B5: Ac-06-34-18(TMB)-NH2 Phe2Tyr4 (peptide)
peptide: Ac-CSFPYRCLHQDLC-NH2
modifications: linker 1-7-13 via TBMB
SMILES: CC(=O)N[C@H]1CSCc2cc3cc(c2)CSC[C@H](NC(=O)[C@H](CCCNC(=N)N)NC(=O)[C@H](Cc2ccc(O)cc2)NC(=O)[C@@H]2CCCN2C(=O)[C@H](Cc2ccccc2)NC(=O)[C@H](CO)NC1=O)C(=O)N[C@@H](CC(C)C)C(=O)N[C@@H](Cc1c[nH]cn1)C(=O)N[C@@H](CCC(N)=O)C(=O)N[C@@H](CC(=O)O)C(=O)N[C@@H](CC(C)C)C(=O)N[C@H](C(N)=O)CSC3
notes: also called Ac-(06-34-18) FPYR; Ac-(06-34-18) Phe2 Tyr4
On to B5, for which the Ki in experiment [20], in experiment [23] and in experiment [21] was 0.46 nM in each case. Also, in [22], the IC50 came out at 13.8 nM.

B6: Ac-(06-34-18) Phe2 Tyr4 4GuanPhe5 (peptide)
peptide: Ac-CSFPY[Phe(4-guanidino)]CLHQDLC-NH2
modifications: linker 1-7-13 via TBMB
SMILES: CC(=O)N[C@H]1CSCc2cc3cc(c2)CSC[C@H](NC(=O)[C@H](Cc2ccc(NC(=N)N)cc2)NC(=O)[C@H](Cc2ccc(O)cc2)NC(=O)[C@@H]2CCCN2C(=O)[C@H](Cc2ccccc2)NC(=O)[C@H](CO)NC1=O)C(=O)N[C@@H](CC(C)C)C(=O)N[C@@H](Cc1c[nH]cn1)C(=O)N[C@@H](CCC(N)=O)C(=O)N[C@@H](CC(=O)O)C(=O)N[C@@H](CC(C)C)C(=O)N[C@H](C(N)=O)CSC3
Consider B6, for which affinity in experiment [21] was put at a Ki of 0.4 nM. In experiment [22], this molecule returned a concentration for half-maximal inhibition (IC50) of 2.5 nM.

B7: Ac-(06-34-18) Phe2 Tyr4 NMeArg5 (peptide)
peptide: Ac-CSFPY[NMeR]CLHQDLC-NH2
modifications: linker 1-7-13 via TBMB
SMILES: CC(=O)N[C@H]1CSCc2cc3cc(c2)CSC[C@H](NC(=O)[C@H](CCCNC(=N)N)N(C)C(=O)[C@H](Cc2ccc(O)cc2)NC(=O)[C@@H]2CCCN2C(=O)[C@H](Cc2ccccc2)NC(=O)[C@H](CO)NC1=O)C(=O)N[C@@H](CC(C)C)C(=O)N[C@@H](Cc1c[nH]cn1)C(=O)N[C@@H](CCC(N)=O)C(=O)N[C@@H](CC(=O)O)C(=O)N[C@@H](CC(C)C)C(=O)N[C@H](C(N)=O)CSC3
In [21], B7 returned a Ki of 3.56 nM. This molecule also registered an IC50 in [22] of 60.2 nM.
With AC[NMeS]WPARCLHQDLCA (linker 2-8-14 via TBMB; not fully specified (N-terminus, C-terminus)) [06-34-18 -N-MeSer1], the “fold loss in potency against the parent” value in [9] came to 10 fold. This molecule showed an inhibition constant Ki in experiment [12] of 0.56 nM.
Turning to ACAWPARCAHQDLCA (linker 2-8-14 via TBMB; not fully specified (N-terminus, C-terminus), also called R1A/V6A) [06-34-03 - Ala1,6], the inhibition constant Ki in experiment [12] is 0.147 nM.
